Reference: patent US20240294594A1

Columns and labels:
FcγRIIIa F158 (human) [1] = target: FcγRIIIa F158 (human) (UniProt P08637); assay: SPR (Biacore 8K), receptor captured via anti-His antibody
FcγRIIIa V158 (human) [2] = target: FcγRIIIa V158 (human) (UniProt P08637); assay: as above
FcγRIIb = FcγRIIb (UniProt P31994); assay: as above
FcγRIIIa F158 (human) [3] = target: FcγRIIIa F158 (human) (UniProt P08637); assay: SPR (Biacore 8K), ratio of 1/Kd values
FcγRIIIa V158 (human) [4] = target: FcγRIIIa V158 (human) (UniProt P08637); assay: SPR (Biacore 8K), ratio of 1/Kd values

Sequence of FcγRIIIa V158 (human) (P08637 17-208 F176V limits assumed): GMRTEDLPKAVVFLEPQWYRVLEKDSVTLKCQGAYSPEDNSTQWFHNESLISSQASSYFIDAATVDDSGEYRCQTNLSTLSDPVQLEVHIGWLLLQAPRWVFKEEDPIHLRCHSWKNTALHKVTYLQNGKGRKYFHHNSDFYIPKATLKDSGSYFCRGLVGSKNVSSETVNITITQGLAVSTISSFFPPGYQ
Sequence of FcγRIIIa F158 (human) (P08637 17-208 limits assumed): as the sequence (P08637 17-208 F176V limits assumed) above, with V160F counted along it
Sequence of FcγRIIb (P31994 46-217 limits assumed): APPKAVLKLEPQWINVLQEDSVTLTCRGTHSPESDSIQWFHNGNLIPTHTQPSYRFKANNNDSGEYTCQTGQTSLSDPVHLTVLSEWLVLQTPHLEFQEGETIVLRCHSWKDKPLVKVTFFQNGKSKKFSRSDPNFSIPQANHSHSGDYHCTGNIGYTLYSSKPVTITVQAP

Zolbetuximab (antibody) was tested, and the Kd (FcγRIIIa F158 (human) [1]) was 423 nM, the Kd (FcγRIIIa V158 (human) [2]) was 86.4 nM and the Kd (FcγRIIb) was 13900 nM. The A/I (F158), affinity towards FcγRIIIa over affinity towards FcγRIIb (FcγRIIIa F158 (human) [3]) was 32.9 and the A/I (V158), affinity towards FcγRIIIa over affinity towards FcγRIIb (FcγRIIIa V158 (human) [4]) was 161.
